Experimental findings from the supplement of paper PMC9233669 are described below.

For one data set, the system named is biotinyl-Ile-oxazolone. The data set can be described thus: self-aminoacylation, catalytic enhancement (BIO) (fold over background); higher = more active; k-Seq, kA / k0A0; sequences stand for … in GGGAAUGGAUCCACAUCUACGAAUUC…UUCACUGCAGACUUGACGAAGCUG
The gist of the method: (§1)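 Working in 50 μL HEPES/NaCl/KCl/MgCl2/CaCl2 buffer with 5% acetonitrile at pH 6.9–7.0, mutagenized RNA pools (0.43 μM; 21-nt variable region) were reacted with 2–1250 μM of each biotinyl-aminoacyl-oxazolone for 90 minutes at room temperature. Streptavidin capture followed, with quantification by triplicate qPCR and Illumina sequencing. Catalytic enhancement is reported as median kA over the uncatalyzed rate, the low-activity peak of a bimodal Gaussian fit to the data.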

Another data set has as its system biotinyl-Val-oxazolone. The data set can be described thus: self-aminoacylation, catalytic enhancement (BVO) (fold over background); higher = more active; k-Seq, kA / k0A0; sequences stand for … in GGGAAUGGAUCCACAUCUACGAAUUC…UUCACUGCAGACUUGACGAAGCUG
The gist of the method: as §1

For another data set, the system named is biotinyl-Met-oxazolone. The data set can be described thus: self-aminoacylation, catalytic enhancement (BMO) (fold over background); higher = more active; k-Seq, kA / k0A0; sequences stand for … in GGGAAUGGAUCCACAUCUACGAAUUC…UUCACUGCAGACUUGACGAAGCUG
The gist of the method: as §1

The next data set deals with biotinyl-Phe-oxazolone. The data set is described as follows: self-aminoacylation, catalytic enhancement (BFO) (fold over background); higher = more active; k-Seq, kA / k0A0; sequences stand for … in GGGAAUGGAUCCACAUCUACGAAUUC…UUCACUGCAGACUUGACGAAGCUG
The gist of the method: as §1

Another data set deals with biotinyl-Trp-oxazolone. The data set is described as follows: self-aminoacylation, catalytic enhancement (BWO) (fold over background); higher = more active; k-Seq, kA / k0A0; sequences stand for … in GGGAAUGGAUCCACAUCUACGAAUUC…UUCACUGCAGACUUGACGAAGCUG
The gist of the method:
as §1

The next data set concerns biotinyl-Leu-oxazolone. The data set can be described thus: self-aminoacylation, catalytic enhancement (BLO) (fold over background); higher = more active; k-Seq, kA / k0A0; sequences stand for … in GGGAAUGGAUCCACAUCUACGAAUUC…UUCACUGCAGACUUGACGAAGCUG
The procedure, abridged:
as §1

This sample holds only a part of the variants without activity.

As for “GUACUUCACACAAUCGGUCUG [Fam1A.1 aminoacylation ribozyme variant]”, the self-aminoacylation is 1.34 in the data set with biotinyl-Ile-oxazolone; 1.3 in the data set with biotinyl-Val-oxazolone; 1.02 in the data set with biotinyl-Met-oxazolone; 1.5 in the data set on biotinyl-Phe-oxazolone; 1.67 in the data set with biotinyl-Trp-oxazolone; 1.11 in the data set with biotinyl-Leu-oxazolone.

Take “AGUCACCUAGGUCAUCGGCUG [Fam2.2 aminoacylation ribozyme variant]”: the self-aminoacylation in the data set on biotinyl-Ile-oxazolone came out at 2.5; in the data set on biotinyl-Val-oxazolone, 2.59; in the data set on biotinyl-Met-oxazolone, 2.18; in the data set on biotinyl-Phe-oxazolone, 18.9; in the data set on biotinyl-Trp-oxazolone, 3; with biotinyl-Leu-oxazolone, 2.27.

Regarding “AUUACCCUGGUCAUCUAGUGU [Fam2.1 aminoacylation ribozyme variant]”, the self-aminoacylation with biotinyl-Ile-oxazolone is 2.02; in the data set on biotinyl-Val-oxazolone, 2.48; in the data set with biotinyl-Met-oxazolone it was 4.11; in the data set with biotinyl-Phe-oxazolone it was 9.89; in the data set on biotinyl-Trp-oxazolone, 4.88; in the data set with biotinyl-Leu-oxazolone, 4.08.

In the case of “AUUACCAUGGUCAUCGGGUGA [Fam2.1 aminoacylation ribozyme variant]”, the self-aminoacylation came to 6.52 in the data set on biotinyl-Ile-oxazolone; 7.28 in the data set on biotinyl-Val-oxazolone; 14.7 with biotinyl-Met-oxazolone; 96 with biotinyl-Phe-oxazolone; 16.2 in the data set with biotinyl-Trp-oxazolone; 13.6 in the data set with biotinyl-Leu-oxazolone.

For the sequence “UUACUUCAAACAAUCGGUCUC [Fam1A.1 aminoacylation ribozyme variant]”, the self-aminoacylation in the data set with biotinyl-Ile-oxazolone was determined as 1.2; with biotinyl-Val-oxazolone it was 1.04; in the data set with biotinyl-Met-oxazolone, 1.17; with biotinyl-Phe-oxazolone it was 31.6; in the data set with biotinyl-Trp-oxazolone it was 17.2; in the data set on biotinyl-Leu-oxazolone it was 1.4.

With “AUUGCCCUGGUCAUCGAGGGA [Fam2.1 aminoacylation ribozyme variant]”, the self-aminoacylation in the data set with biotinyl-Ile-oxazolone is 1.93; with biotinyl-Val-oxazolone, 2.22; in the data set with biotinyl-Met-oxazolone it was 3.9; in the data set on biotinyl-Phe-oxazolone, 4.65; in the data set with biotinyl-Trp-oxazolone, 3.16; with biotinyl-Leu-oxazolone it was 3.97.

Regarding “AUUACCCUGCUCAUUGAGUGA [Fam2.1 aminoacylation ribozyme variant]”, the self-aminoacylation worked out at 2.27 with biotinyl-Ile-oxazolone; 2.39 in the data set with biotinyl-Val-oxazolone; 4.57 in the data set with biotinyl-Met-oxazolone; 19.1 with biotinyl-Phe-oxazolone; 5.58 in the data set on biotinyl-Trp-oxazolone; 4.39 in the data set on biotinyl-Leu-oxazolone.

Consider “AAGUACGCUAAUAGUCGCAAG [Fam3.1 aminoacylation ribozyme variant]”, for which the self-aminoacylation stood at 1.94 in the data set on biotinyl-Ile-oxazolone; 1.8 in the data set on biotinyl-Val-oxazolone; 1.59 in the data set with biotinyl-Met-oxazolone; 6.76 in the data set on biotinyl-Phe-oxazolone; 3.1 in the data set on biotinyl-Trp-oxazolone; 2.38 in the data set with biotinyl-Leu-oxazolone.

For the sequence “AAGCUUGCUAAUAGUCACAAG [Fam3.1 aminoacylation ribozyme variant]”, the self-aminoacylation in the data set on biotinyl-Ile-oxazolone came to 1.64; in the data set with biotinyl-Val-oxazolone, 1.35; in the data set on biotinyl-Met-oxazolone, 1.5; with biotinyl-Phe-oxazolone, 4.35; in the data set on biotinyl-Trp-oxazolone it was 1.28; in the data set with biotinyl-Leu-oxazolone it was 1.65.

With “AAGGUUGCUAAUAGUCGCAAA [Fam3.1 aminoacylation ribozyme variant]”, the self-aminoacylation with biotinyl-Ile-oxazolone worked out at 1.86; with biotinyl-Val-oxazolone it was 1.42; in the data set on biotinyl-Met-oxazolone, 1.28; in the data set on biotinyl-Phe-oxazolone, 1.51; with biotinyl-Trp-oxazolone, 1.4; in the data set with biotinyl-Leu-oxazolone, 1.63.

Take “CCACAAUUCAGGCAAUCGGUC [Fam1B.1 aminoacylation ribozyme variant]”: the self-aminoacylation in the data set with biotinyl-Ile-oxazolone stood at 1.47; with biotinyl-Val-oxazolone, 1.42; in the data set on biotinyl-Met-oxazolone, 1.37; with biotinyl-Phe-oxazolone, 1.29; with biotinyl-Trp-oxazolone, 0.94; in the data set with biotinyl-Leu-oxazolone it was 1.46.

“AAGUUCGCUAAUCGUCGCAAG [Fam3.1 aminoacylation ribozyme variant]”: the self-aminoacylation with biotinyl-Ile-oxazolone turned out to be 1.6; in the data set with biotinyl-Val-oxazolone, 1.48; with biotinyl-Met-oxazolone, 1.25; in the data set with biotinyl-Phe-oxazolone, 6.17; in the data set with biotinyl-Trp-oxazolone, 2.55; in the data set with biotinyl-Leu-oxazolone, 1.05.

Turning to “AUGACCCAGGUCAUCGAGUGA [Fam2.1 aminoacylation ribozyme variant]”, the self-aminoacylation stood at 2.5 in the data set with biotinyl-Ile-oxazolone; 2.5 in the data set with biotinyl-Val-oxazolone; 4.72 in the data set on biotinyl-Met-oxazolone; 17.9 in the data set on biotinyl-Phe-oxazolone; 5.92 in the data set with biotinyl-Trp-oxazolone; 5.25 in the data set on biotinyl-Leu-oxazolone.

As to “CUGCUUCAAACAUUCGGUCUG [Fam1A.1 aminoacylation ribozyme variant]”, the self-aminoacylation was 1.29 with biotinyl-Ile-oxazolone; 1.62 in the data set on biotinyl-Val-oxazolone; 1.12 with biotinyl-Met-oxazolone; 1.11 in the data set with biotinyl-Phe-oxazolone; 0.813 in the data set on biotinyl-Trp-oxazolone; 1.25 in the data set with biotinyl-Leu-oxazolone.

As to “CCACACUGCAAGCAAUCGAUC [Fam1B.1 aminoacylation ribozyme variant]”, the self-aminoacylation is 0.9 with biotinyl-Ile-oxazolone; 1.07 with biotinyl-Val-oxazolone; 0.56 with biotinyl-Met-oxazolone; 1.39 in the data set on biotinyl-Phe-oxazolone; 0.727 in the data set with biotinyl-Trp-oxazolone; 0.739 with biotinyl-Leu-oxazolone.

As to “AUACUGCAAACAAUCGGUCUG [Fam1A.1 aminoacylation ribozyme variant]”, the self-aminoacylation with biotinyl-Ile-oxazolone is 1.08; with biotinyl-Val-oxazolone it was 1.05; in the data set on biotinyl-Met-oxazolone, 1.09; in the data set with biotinyl-Phe-oxazolone, 2.49; with biotinyl-Trp-oxazolone, 1.44; with biotinyl-Leu-oxazolone, 1.18.

With “AUUGACCUAGGGCAUCGGGUG [Fam2.2 aminoacylation ribozyme variant]”, the self-aminoacylation in the data set with biotinyl-Ile-oxazolone stood at 3.23; in the data set on biotinyl-Val-oxazolone, 3.28; with biotinyl-Met-oxazolone it was 3.13; in the data set on biotinyl-Phe-oxazolone it was 17; in the data set with biotinyl-Trp-oxazolone it was 4.66; in the data set with biotinyl-Leu-oxazolone, 3.63.

As to “AAGUUUGCUAAUAGACACAAG [Fam3.1 aminoacylation ribozyme variant]”, the self-aminoacylation in the data set with biotinyl-Ile-oxazolone was determined as 0.828; in the data set with biotinyl-Val-oxazolone, 0.916; in the data set with biotinyl-Met-oxazolone, 0.665; in the data set on biotinyl-Phe-oxazolone it was 1.23; with biotinyl-Trp-oxazolone it was 0.797; with biotinyl-Leu-oxazolone it was 0.654.

For the sequence “CUACACUUCUAGCAAUCGGUC [Fam1B.1 aminoacylation ribozyme variant]”, the self-aminoacylation in the data set with biotinyl-Ile-oxazolone amounted to 0.706; in the data set with biotinyl-Val-oxazolone, 0.635; in the data set with biotinyl-Met-oxazolone, 0.572; in the data set with biotinyl-Phe-oxazolone, 0.693; in the data set with biotinyl-Trp-oxazolone it was 0.565; in the data set with biotinyl-Leu-oxazolone it was 0.669.

For the sequence “GUUCACCUAGGUUAUCGGGUG [Fam2.2 aminoacylation ribozyme variant]”, the self-aminoacylation amounted to 3.41 in the data set with biotinyl-Ile-oxazolone; 3.44 in the data set with biotinyl-Val-oxazolone; 4.84 in the data set on biotinyl-Met-oxazolone; 34 in the data set with biotinyl-Phe-oxazolone; 5.35 with biotinyl-Trp-oxazolone; 4.08 in the data set with biotinyl-Leu-oxazolone.

As for “ACUCACCUAGGUCAGCGGGUG [Fam2.2 aminoacylation ribozyme variant]”, the self-aminoacylation amounted to 3.56 in the data set on biotinyl-Ile-oxazolone; 3.86 in the data set with biotinyl-Val-oxazolone; 4.16 in the data set on biotinyl-Met-oxazolone; 31.4 in the data set with biotinyl-Phe-oxazolone; 4.54 in the data set with biotinyl-Trp-oxazolone; 4.43 with biotinyl-Leu-oxazolone.

In the case of “AUUACCCUGGUCAUCGAGCGA [Fam2.1 aminoacylation ribozyme variant]”, the self-aminoacylation with biotinyl-Ile-oxazolone is 2.15; with biotinyl-Val-oxazolone it was 2.18; in the data set with biotinyl-Met-oxazolone, 3.51; in the data set with biotinyl-Phe-oxazolone, 3.41; in the data set with biotinyl-Trp-oxazolone, 3.33; in the data set on biotinyl-Leu-oxazolone, 3.7.

As to “CUACUCCAAACAAUCUGUCUG [Fam1A.1 aminoacylation ribozyme variant]”, the self-aminoacylation in the data set on biotinyl-Ile-oxazolone came to 0.799; in the data set on biotinyl-Val-oxazolone it was 0.766; with biotinyl-Met-oxazolone, 0.578; in the data set on biotinyl-Phe-oxazolone, 0.973; in the data set on biotinyl-Trp-oxazolone it was 0.506; in the data set on biotinyl-Leu-oxazolone, 0.716.

Regarding “CUACUUCAAGCUAUCGGUCUG [Fam1A.1 aminoacylation ribozyme variant]”, the self-aminoacylation in the data set on biotinyl-Ile-oxazolone worked out at 0.839; in the data set on biotinyl-Val-oxazolone, 0.892; in the data set with biotinyl-Met-oxazolone, 0.942; in the data set on biotinyl-Phe-oxazolone it was 0.617; in the data set on biotinyl-Trp-oxazolone, 0.43; with biotinyl-Leu-oxazolone, 0.689.

As to “CUAUUUCAAACAAUCGGUCUC [Fam1A.1 aminoacylation ribozyme variant]”, the self-aminoacylation in the data set with biotinyl-Ile-oxazolone was determined as 0.818; in the data set with biotinyl-Val-oxazolone it was 0.835; in the data set on biotinyl-Met-oxazolone, 0.775; with biotinyl-Phe-oxazolone it was 7.11; in the data set on biotinyl-Trp-oxazolone, 3.67; in the data set on biotinyl-Leu-oxazolone it was 0.785.
